Laboratory results from US9988424.

What was measured:
[1] = target: 92TH023 V2 cyclic peptide (HIV-1); experiment: RPMI 8866 cell adhesion to coated peptide, mAb 10 ug/ml
[2] = target: V2 aa 168-182 peptide (HIV-1); experiment: ELISA on V2 peptide (FIG. 55A)
[3] = target: 92TH023 V2 cyclic peptide (HIV-1); experiment: RPMI 8866 cell adhesion to coated peptide, mAb 5 ug/ml
[4] = target: 92TH023 V2 cyclic peptide (HIV-1); experiment: RPMI 8866 cell adhesion to coated peptide, mAb 20 ug/ml

Binder | % inhibition [1] | EC50 [2] | % inhibition [3] | % inhibition [4]
697D (antibody, V domains shown) VH: QVQLVQSGAEVKKPGSSVKVSCKASGGNFNTYTISWVRQAPGQGLEWMGRIIPIFGIVNPAQKFPGRVTINVDKSTNTAYMELSSLRSEDTAVYYCATSGVGLHFGYFDYWGQGTQVTVSS VL: QSVLTQPPSVSGAPGQRVTISCTGSSSNIGAHYDVHWYQQLPGTAPKLLIYGNSNRPSGVPDRFSGSKSGTSASLAITGLQAEDEADYYCQSYDSSLSGYVFGTGTKVTVL | -13.1% | – | – | –
CH59 (antibody, V domains shown) VH: EVQLVESGGGLVQPGRSLRLSCAASGFTFDDGAMHWVRQAPGKGLEWVSGISWNSNIIAYADSVKGRFTISRDNAKNSLYLEMNSLRVEDTALYYCAKDSPRGELPLNYWGQGTLVTVSS VL: SYELTQPPSVSVSPGQTARITCSGDALPKNYAYWYQQKSGQAPVLVIYEDSKRPSGIPERFSGSSSGTMATLTISGAQVEDEADYYCYSTDSSGNHRVFGGGTKLTVL | 36.7% | 3 ng/mL | 19.4% | 44.8%
